Assay results published in patent US20230094162A1.
Where two headings read alike, the source gives them in different places.

Tests used:
[1] = biological target: CD137 expressed on the cell surface (CHO/CD137 cells) (UniProt Q07011); experiment: cell-based or functional assay
[2] = biological target: CD137 expressed on the cell surface (CHO/CD137 cells) (UniProt Q07011); experiment: flow cytometry on CHO/CD137 cells (Surface Binding)
[3] = biological target: PD-L1 expressed on the cell surface (CHO/PD-L1 cells) (UniProt Q9NZQ7); experiment: flow cytometry (FACS) on CHO cells expressing PD-L1, MFI
[4] = biological target: PD-L1 expressed on the cell surface (CHO/PD-L1 cells) (UniProt Q9NZQ7)
[5] = biological target: CD137 expressed on the cell surface (CHO/CD137 cells) (UniProt Q07011); experiment: flow cytometry (FACS) on CHO cells expressing CD137, MFI

Chain of CD137 expressed on the cell surface (CHO/CD137 cells) (Q07011 24-255 limits assumed): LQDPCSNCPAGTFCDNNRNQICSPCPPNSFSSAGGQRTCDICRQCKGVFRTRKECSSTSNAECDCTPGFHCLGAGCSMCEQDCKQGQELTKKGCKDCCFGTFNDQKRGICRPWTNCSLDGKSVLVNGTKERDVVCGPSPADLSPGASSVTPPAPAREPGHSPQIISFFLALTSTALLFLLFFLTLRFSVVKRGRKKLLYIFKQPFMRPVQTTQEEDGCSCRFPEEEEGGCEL
Chain of PD-L1 expressed on the cell surface (CHO/PD-L1 cells) (Q9NZQ7 19-290): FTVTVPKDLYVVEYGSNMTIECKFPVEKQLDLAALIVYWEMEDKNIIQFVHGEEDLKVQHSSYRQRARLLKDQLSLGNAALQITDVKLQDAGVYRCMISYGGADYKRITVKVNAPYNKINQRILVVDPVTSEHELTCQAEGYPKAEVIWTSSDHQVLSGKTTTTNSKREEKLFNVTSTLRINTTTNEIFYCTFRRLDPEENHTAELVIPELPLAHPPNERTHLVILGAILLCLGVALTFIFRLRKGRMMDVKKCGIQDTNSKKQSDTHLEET

non-specific mAb (antibody)
Reporter Assay (RLU), 0.08 µg/mL [1]: 1250 RLU | Reporter Assay (RLU), IgG conc 0.02 µg/mL [1]: 1020 RLU | Reporter Assay (RLU), IgG conc 0.1 µg/mL [1]: 1240 RLU | MFI max [2]: 149 MFI

replica of the anti-PD-L1 antibody atezolizumab (r-atezolizumab)
EC50 (read off the curve) [3]: 0.01 µg/mL | EC50 (read off the curve) [4]: 0.3 µg/mL

replica of the agonistic anti-CD137 mAb urelumab (r-urelumab) (antibody)
EC50 (read off the curve) [5]: 0.06 µg/mL
